Reference: the supplement of paper PMC7125110
± gives the standard error. Variants at the floor of the assay were thinned out.

B1: glmS ribozyme (parent)
chain: AUAAAAGCGCCAGAACUACAGAAAUGUAGUUGACGAGGAGGAGGUUUAUCGAAUUUUCGGCGGAUGCCUCCAAA

Experiments:
Settings in all cases: with glucosamine-6-phosphate
[1] = variants of: B1; test: self-cleavage kobs at 640 uM GlcN6P; higher = faster cleavage; RNA array
Outline: (§1)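 Sequenced MiSeq chips were the platform: E. coli RNA polymerase transcribed barcoded ribozyme variants on them in situ, and a hybridised Cy3 probe tracked these at 37 °C. After glucosamine-6-phosphate (40 μM to 10 mM) in HEPES/KCl/Mg(OAc)2 buffer was flowed in, tiles were imaged over ~14 h. Signals normalised to baseline and to non-cleaving reference variants were reduced to per-tile medians and fit to one- or two-exponential decays to obtain kobs. kcat and KM were derived through weighted Michaelis–Menten fits across concentrations.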

[2] = variants of: B1; test: self-cleavage kobs at 2500 uM GlcN6P; higher = faster cleavage; RNA array
Outline: as §1

[3] = variants of: B1; test: self-cleavage kobs at 10000 uM GlcN6P; higher = faster cleavage; RNA array
Outline: as §1

## AUAAAAGCGCCAGAACUACAGAAAUGUAGUUGAUGAGGAGGAGGUUUAUGGAAAUUUCGGCGGAUGCCUCCAAA [C34U C50G U54A]
[1]
  self-cleavage kobs at 640 uM GlcN6P: 0.000235 ± 6.6e-05 s⁻¹
[2]
  self-cleavage kobs at 2500 uM GlcN6P: 0.000344 ± 0.0001 s⁻¹

## AUAAAAGCGCCAGAACUACAGAAAUGUAGUUGACGAGGAGGAUGUUUAUCGAAUUUUCGGCGUAUGCCUCGAAA [G43U G63U C71G]
[1]
  self-cleavage kobs at 640 uM GlcN6P: < 1e-05 s⁻¹
[2]
  self-cleavage kobs at 2500 uM GlcN6P: < 1e-05 s⁻¹

## AUAAAAGCGCCAGAACUACAGAAAUGUAGGUGACGAGGAGGAGGUUCAUCGAAUUUUCGGCGGAUGCCUCCAAA [U30G U47C]
[1]
  self-cleavage kobs at 640 uM GlcN6P: 0.000187 ± 6.5e-05 s⁻¹
[2]
  self-cleavage kobs at 2500 uM GlcN6P: 0.00013 ± 6.3e-05 s⁻¹

## AUAAAAGGGCCAGAACUACAGAAAUGUAGUUGACGAGGAGGAGGUUUAUCGAAUUUUCGGCGGCUGCGUCCAAA [C8G A64C C68G]
[1]
  self-cleavage kobs at 640 uM GlcN6P: < 1e-05 s⁻¹
[2]
  self-cleavage kobs at 2500 uM GlcN6P: < 1e-05 s⁻¹

## AUAAAAGCACCAGAACUACAGAAAUGUAUUUGACGAGGAGAAGGAUGAUUGAAUUUUCGGCGGAUGCCUUCAAA [G9A G29U G41A U45A U47G C50U C70U]
[1]
  self-cleavage kobs at 640 uM GlcN6P: < 1e-05 s⁻¹

## AUAAAUGCGCCAGGACUACAGAAAUGUAGUUGACGAGGAGGAGGUUUAUCGAAUUUUCGCCGGAUGCCUCCAAA [A6U A14G G60C]
[1]
  self-cleavage kobs at 640 uM GlcN6P: < 1e-05 s⁻¹

## AUAAAAGGGCCAGAACUACAGAAAUGUAGUUGACGAGGAGGAGGUUUAUGGAAUUUUCGGUGGUUGCCUCCAAA [C8G C50G C61U A64U]
[1]
  self-cleavage kobs at 640 uM GlcN6P: 0.00078 ± 0.00019 s⁻¹
[2]
  self-cleavage kobs at 2500 uM GlcN6P: 0.00023 ± 6.3e-05 s⁻¹

## AUAAAAUCGCCAGAACUACAGAAAUGUAGUUGACGAGGAGGAGGUUUUUAGAAUUUUCGGCGGAUGGCUCCAAA [G7U A48U C50A C67G]
[1]
  self-cleavage kobs at 640 uM GlcN6P: 0.000229 ± 8.3e-05 s⁻¹

## AUAAAAGCGCCAGAACUACAGAAAUGUAGUUGCCGAGCAGGAGGUUUAUCGAAUCUUCGGGGGAUGCCUCUAAA [A33C G38C U55C C61G C71U]
[1]
  self-cleavage kobs at 640 uM GlcN6P: < 1e-05 s⁻¹
[2]
  self-cleavage kobs at 2500 uM GlcN6P: < 1e-05 s⁻¹

## AUAAAAGCGCCAGAACUACAGAAAUGUAGUUGACGAGGAGGAUGUUUAUCCAAUUUUCCGCUGAUGCUUCCAAA [G43U G51C G59C G62U C68U]
[1]
  self-cleavage kobs at 640 uM GlcN6P: < 1e-05 s⁻¹

## AUAAAAGCGCCAGAACUACAGAAAUGUAAGUGACAAGGUGGAGGUUUAUCGAAUUUUCGGCGGAUGCCUCCAAA [G29A U30G G35A A39U]
[1]
  self-cleavage kobs at 640 uM GlcN6P: < 1e-05 s⁻¹
[2]
  self-cleavage kobs at 2500 uM GlcN6P: < 1e-05 s⁻¹

## AUAAAAGAGCCAGAACUACAGAAAUGUAGUUGACGAGGAGGAGGUUUAUGGAAUUUUCGGAGGAUGCCGCCAAA [C8A C50G C61A U69G]
[1]
  self-cleavage kobs at 640 uM GlcN6P: 7.27e-05 ± 2.2e-05 s⁻¹
[2]
  self-cleavage kobs at 2500 uM GlcN6P: 6.55e-05 ± 2.7e-05 s⁻¹

## AUAAAAGCGCCAGAACUACAGAAAUGUAGUUGACGAGGAGGAGGUUUGUCGACUUUUUUGCGGAUGCCUCCAAA [A48G A53C C58U G59U]
[1]
  self-cleavage kobs at 640 uM GlcN6P: < 1e-05 s⁻¹

## AUAAAGGCGCCACAACUACAGAAAUGUAGUUAACGAGGAGGAGGUUUAUCGAAUUUUCGGCGGAUUCCUCCAAA [A6G G13C G32A G66U]
[1]
  self-cleavage kobs at 640 uM GlcN6P: < 1e-05 s⁻¹
[2]
  self-cleavage kobs at 2500 uM GlcN6P: < 1e-05 s⁻¹

## AUAAAAGCGCCAGAACUACAGAAAUGUAGUUCACCAGGAGGAGGUUCAUCGAAUUUUUGGCGGAUGCCUCCAAA [G32C G35C U47C C58U]
[1]
  self-cleavage kobs at 640 uM GlcN6P: < 1e-05 s⁻¹

## AUAAAAGCGCCAGACCUACAGAAAUGUAGUUGACGAGGAGGAGGUUUAGCGAAUUUUCGGCUGCUGCCUUCAAA [A15C U49G G62U A64C C70U]
[1]
  self-cleavage kobs at 640 uM GlcN6P: < 1e-05 s⁻¹

## AUAAAAGCGCCAGAACUACAGAAAUGUAGUCGACGAGGAGGAGGUUUAUCGAAUUUUCGGCGGAUGGGUCCAAA [U31C C67G C68G]
[1]
  self-cleavage kobs at 640 uM GlcN6P: 5.49e-05 ± 1.6e-05 s⁻¹

## AUAAAAGUGCCAGAACUACAGAAAUGUAGUUGACGAGGUCGAGGUUUAUCGAAUUGGCGGCGGAUGCCUCCAAA [C8U A39U G40C U56G U57G]
[1]
  self-cleavage kobs at 640 uM GlcN6P: < 1e-05 s⁻¹

## AUAAAAGCGACAGAACUACAGAAAUGUAGUUGACGAGGAGGAGGUUUAUCAAAUUUUCGGCGGAUGCCUCCAAA [C10A G51A]
[1]
  self-cleavage kobs at 640 uM GlcN6P: < 1e-05 s⁻¹
[3]
  self-cleavage kobs at 10000 uM GlcN6P: < 1e-05 s⁻¹

## AUAAAAGCGCCAUAACUACAGAAAUGUAGUUAACGAGGAGGAGGUAUAUCGAAUUUUCGGCGGAUGCCUCCAAA [G13U G32A U46A]
[1]
  self-cleavage kobs at 640 uM GlcN6P: 4.17e-05 ± 1.9e-05 s⁻¹
[2]
  self-cleavage kobs at 2500 uM GlcN6P: 8.03e-05 ± 2.3e-05 s⁻¹

## AUAAAAGCGCCAGAAUUACAGAAAUGUAGUUGACGAGGGGGAGGUUUAUCGACUUUUCGGCGGAUGCAUCCAAA [C16U A39G A53C C68A]
[1]
  self-cleavage kobs at 640 uM GlcN6P: < 1e-05 s⁻¹

## AUAAAAGCGCCAGAACUACAGAAAUGUAGAUGACGAGGAGGAGGUUUAUCGAUUUUUCGGCGGAUGGCUCCAAA [U30A A53U C67G]
[1]
  self-cleavage kobs at 640 uM GlcN6P: 6.37e-05 ± 2.6e-05 s⁻¹
[2]
  self-cleavage kobs at 2500 uM GlcN6P: 4.68e-05 ± 2.2e-05 s⁻¹
[3]
  self-cleavage kobs at 10000 uM GlcN6P: 0.000271 ± 6.3e-05 s⁻¹

## AUAAAAGCGCCAGAACUACAGAAAUGUAGUCGACGAGGUGGAGGUUUAUCGAAUUUUCGGCGGAUGACUCCAAA [U31C A39U C67A]
[1]
  self-cleavage kobs at 640 uM GlcN6P: 0.000787 ± 0.00025 s⁻¹
[2]
  self-cleavage kobs at 2500 uM GlcN6P: 0.000712 ± 0.00021 s⁻¹
[3]
  self-cleavage kobs at 10000 uM GlcN6P: 0.000846 ± 0.0002 s⁻¹
